The source of these data is the supplement of paper PMC10201428.

± gives the standard deviation of the averaged measurements.

Data set [1] relates to VchCAST RNA-guided transposition machinery (E. coli BL21(DE3) host, lacZ target). Put plainly: relative integration efficiency (T-RL orientation) vs wild-type transposon end (log2 (normalized fold change)); transposon end mutated: right end (5 bp flank + 75 bp right end); higher = more efficient transposition. The gist of the method: (§1)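 A T7-driven effector plasmid encoding a CRISPR array, tniQ-cas8-cas7-cas6 and tnsA-tnsB-tnsC was co-transformed into E. coli BL21(DE3) together with a pUC57 mini-transposon donor holding barcoded pools of 1549 left-end or 1849 right-end variants. Transformants were plated with 0.1 mM IPTG at 37°C for 18 h. Illumina sequencing of PCR-amplified input plasmids and genomic integration junctions gave barcode abundances, and relative integration efficiency is their output/input fold change, normalised to reference barcodes and log-transformed.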

Data set [2] has the same test system. The data set is described as follows: relative integration efficiency (T-LR orientation) vs wild-type transposon end (log2 (normalized fold change)); transposon end mutated: right end (5 bp flank + 75 bp right end); higher = more efficient transposition. The gist of the method: as §1

As for “ACATTTGTTGATACAACCATAAAATGATAATTACTCTGATCATAGTCAGACCAACATTGCTACCACCCATAAATTGATAATTATCACACCCATAAATTGATATTGCGACCCGTATTCGCACCGACAC”, the “relative integration efficiency (log2)” value was -3.63 ± 0.078 in data set [1] and -0.553 ± 0.016 in data set [2].
In the same order, the values of “ACATTTGTTGATACAACCATAAAATGATAATTACTCTGATCATAGTCAGACCAACATTGCTACCACCCATAAATTGATAATTATCAGTGGGTATTTAACTATAACGGACCCGTATTCGCACCGACAC” are -1.54 ± 0.53 and 1.601 ± 0.014.
In the same order, the values of “ACATTTGTTGATACAACCATAAAATGATAATTACTCTGATCATAGTCAGACCAACATTGCTACGACCCCACCCATAAATTGATAATTATCACACCCATAAATTGATATTGCGTATTCGCACCGACAC” are -3.23 ± 0.04 and -0.249 ± 0.18.
As to “ACATTTGTTGATACAACCATAAAATGATAATTACTCTGATCATAGTCAGACCAACATTGCTACGACCCCACCCATAAATTGATAATTATCAGTGGGTATTTAACTATAACGGTATTCGCACCGACAC”, the “relative integration efficiency (log2)” value is -2.938 ± 0.018 in data set [1] and -0.154 ± 0.0093 in data set [2].
For “ACATTTGTTGATACAACCATAAAATGATAATTACTCTGATCATAGTCAGACCAACATTGCTACGACCCGTATTCACCCATAAATTGATAATTATCACACCCATAAATTGATATTGCCGCACCGACAC”, the “relative integration efficiency (log2)” value in data set [1] was -3.12 ± 0.47; in data set [2], 0.261 ± 0.085.
For “ACATTTGTTGATACAACCATAAAATGATAATTACTCTGATCATAGTCAGACCAACATTGCTACGACCCGTATTCACCCATAAATTGATAATTATCAGTGGGTATTTAACTATAACGCGCACCGACAC”, the “relative integration efficiency (log2)” value in data set [1] is -2.15 ± 0.4; in data set [2] it was 1.08 ± 0.33.
Regarding “ACATTTGTTGATACAACCATAAAATGATAATTACTCTGATCATAGTCAGACCAACATTGCTACGACCCGTATTCGCACCACCCATAAATTGATAATTATCACACCCATAAATTGATATTGCCGACAC”, the entries for the “relative integration efficiency (log2)” value in data set [1] and in data set [2] were -2.767 ± 0.019 and -0.66 ± 0.24, respectively.
Turning to “ACATTTGTTGATACAACCATAAAATGATAATTACTCTGATCATAGTCAGACCAACATTGCTACGACCCGTATTCGCACCACCCATAAATTGATAATTATCAGTGGGTATTTAACTATAACGCGACAC”, the figures for the “relative integration efficiency (log2)” value in data set [1] and in data set [2] were -2.38 ± 0.56 and 1.01 ± 0.035, respectively.
Taken in the same sequence, the figures for “ACATTTGTTGATACAACCATAAAATGATAATTACTCTGATCATAGTCAGACCAACATTGCTACGACCCGTATTCGCACCGACACAACGACTATATTTACACCCATAAATTGATAATTATCAGTGGGT” were -1.358 ± 0.0083 and 1.81 ± 0.28.
Regarding “ACATTTGTTGATACAACCATAAAATGATAATTACTCTGATCATAGTCAGACCAACATTGCTACGACCCGTATTCGCACCGACACAACGACTATATTTATGGGTCACCCATAAATTGATAATTATCAG”, the “relative integration efficiency (log2)” value is -1.52 ± 0.14 in data set [1] and 1.36 ± 0.37 in data set [2].
Turning to “ACATTTGTTGATACAACCATAAAATGATAATTACTCTGATCATAGTCAGACCAACATTGCTACGACCCGTATTCGCACCGACACAACGACTATCACCCATAAATTGATAATTATCAGTGGGTATTTA”, the “relative integration efficiency (log2)” value in data set [1] was -1.16 ± 0.15; in data set [2], 2.166 ± 0.019.
As for “ACATTTGTTGATACAACCATAAAATGATAATTACTCTGATCATAGTCAGACCAACATTGCTACGACCCGTATTCGCACCGACACAACGCACCCATAAATTGATAATTATCAGTGGGTATTTAACTAT”, the entries for the “relative integration efficiency (log2)” value in data set [1] and in data set [2] were -1.4 ± 0.054 and 1.8 ± 0.1, respectively.
With “ACATTTGTTGATACAACCATAAAATGATAATTACTCTGATCATAGTCAGACCAACATTGCTACGACCCGTATTCGCACCGACACACCCATAAATTGATAATTATCACACCCATAAATTGATATTGCC”, the “relative integration efficiency (log2)” value is -2.59 ± 0.21 in data set [1] and 0.795 ± 0.3 in data set [2].
Regarding “ACATTTGTTGATACAACCATAAAATGATAATTACTCTGATCATAGTCAGACCAACATTGCTACGACCCGTATTCGCACCGACACACCCATAAATTGATAATTATCAGTGGGTATTTAACTATAACGC”, the “relative integration efficiency (log2)” value in data set [1] is -1.05 ± 0.17; in data set [2] it was 2.24 ± 0.21.
